The values that follow come from publication PMC8603391 (European biophysics journal : EBJ, 2015).

Test [1] addresses T1, Myosin 16 ankyrin domain (My16Ank), GST tag cleaved (Rattus norvegicus, UniProt Q9ERC1-1 1-402).
T1 sequence (looked up): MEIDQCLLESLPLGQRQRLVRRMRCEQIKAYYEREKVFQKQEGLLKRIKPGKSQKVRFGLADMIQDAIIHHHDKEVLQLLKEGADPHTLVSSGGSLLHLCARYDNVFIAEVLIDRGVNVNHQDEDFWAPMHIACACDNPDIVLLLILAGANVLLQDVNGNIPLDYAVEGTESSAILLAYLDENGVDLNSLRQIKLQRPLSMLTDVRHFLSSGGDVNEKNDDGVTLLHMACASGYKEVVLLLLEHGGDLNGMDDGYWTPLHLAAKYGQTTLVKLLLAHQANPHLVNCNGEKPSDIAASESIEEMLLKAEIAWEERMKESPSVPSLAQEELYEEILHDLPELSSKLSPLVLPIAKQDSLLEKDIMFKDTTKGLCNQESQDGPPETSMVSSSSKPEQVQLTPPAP
As to the kind of experiment: SPR. (In general: Surface plasmon resonance follows binding to a sensor surface in real time, without labels.)

The target of test [2] is T2, GST-My16Ank (uncleaved glutathione S-transferase fusion of the myosin 16 ankyrin domain) (Rattus norvegicus, UniProt Q9ERC1-1 1-402).
T2 sequence (looked up): T1 sequence (looked up)
As to the kind of experiment: SPR.

B1: recombinant His-tagged PP1cδ (protein phosphatase-1 catalytic subunit, δ isoform) (enzyme, UniProt P62140 1-327, looked up)
chain: MADGELNVDSLITRLLEVRGCRPGKIVQMTEAEVRGLCIKSREIFLSQPILLELEAPLKICGDIHGQYTDLLRLFEYGGFPPEANYLFLGDYVDRGKQSLETICLLLAYKIKYPENFFLLRGNHECASINRIYGFYDECKRRFNIKLWKTFTDCFNCLPIAAIVDEKIFCCHGGLSPDLQSMEQIRRIMRPTDVPDTGLLCDLLWSDPDKDVQGWGENDRGVSFTFGADVVSKFLNRHDLDLICRAHQVVEDGYEFFAKRQLVTLFSAPNYCGEFDNAGGMMSVDETLMCSFQILKPSEKKAKYQYGGLNSGRPVTPPRTANPPKKR
Broadly, the Kd is the free concentration of one partner at which half of the binding sites on the other are occupied at equilibrium, for simple one-to-one binding. A higher Kd goes with a looser complex. Broadly, the koff is the first-order rate constant of dissociation. Usually kon stands for the second-order rate constant of association. Lower therefore signals slower complex formation. As for B1, the Ka in test [1] came out at 1.65e+06 M⁻¹. In test [2], the Ka was determined as 3.04e+06 M⁻¹, binding was characterised by a dissociation constant (Kd) of 329 nM, the koff was found to be 0.000473 s⁻¹ and the kon amounted to 1440 M⁻¹ s⁻¹.
